The results in this text go back to a protein production outcome set (Wang et al. 2014).

The data set can be described thus: label from the status in PepcDB records.
For “MTVDSNTSSGRGNDPEQIDLIELLLQLWRGKMTIIVAVIIAILLAVGYLMIAKEKWTSTAIITQPDAAQVATYTNALNVLYGGNAPKISEVQANFISRFSSAFSALSEVLDNQKEREKLTIEQSVKGQALPLSVSYVSTTAEGAQRRLAEYIQQVDEEVAKELEVDLKDNITLQTKTLQESLETQEVVAQEQKDLRIKQIEEALRYADEAKITQPQIQQTQDVTQDTMFLLGSDALKSMIQNEATRPLVFSPAYYQTKQTLLDIKNLKVTADTVHVYRYVMKPTLPVRRDSPKTAITLVLAVLLGGMIGAGIVLGRNALRSYKPKAL”, the protein production entry was “not failed”.
In the case of “MSKPGTPKHGAGSSSAAAAPEKISKYNISTEKCGDLTVIVQGDLSQQEKRAVFITVHDLGCNHNSFQEFVSSPCMTEIKERSCFIHVDVPGHADNAEALADGFPFPSLQSLGEDLVTVLDYLHVKYVIGLGEGAGANVLARFGLAHPSRVLGLILINATGSAASVVQSFKNKFISWKSDEVAQSAESFLMYHKFGHQIVGENPDKEKIVAEYQKRLHRSLNSKNIGLYVKAFMNRKDLTLKGCKVDVILITGMLSPYASMVEKLHRDVEKERVTILKIERAGDVLADAPGKVAQSILLFCKGQGLLTSVVMPGVDRGRAFSTASSGSLEGANGSRRLSRGISMEDYDKPNIRRLSIMNSELPKKE”, the protein production result was “failed”.
For the sequence “MIKFYQYKNCTTCKKAAKFLDEYGVSYEPIDIVQHTPTINEFKTIIANTGVEINKLFNTHGAKYRELDLKNKLQTLSDDEKLELLSSDGMLVKRPLAVMGDKITLGFKEDQYKETW”, the protein production entry was “not failed”.
Next, “MGYLKNHWWKRWIRRRGCKLAGGPASVGKRTTLVLEERVELGHLRIVPPRLEIGAYSYVRSGTDLSLVASIGRFCSIGSDCFIGQEKHTHPSDWVSSHPFQHTGTALRYEPALSYAEIGHDVWIGHSAMVMEGVKVGTGAIIATRAVVTRDVPPYAIVAGTPAQVIRYRHPPEIIEGLLASRWWELDSAFLTGLPLDRPREFLAALEAREAPRAAYRRMTITRQGCRLDLEHHHHHH”: “failed”.
As for “MTEWYVVLPATILLIALSAFFVIIEFALLAARRNRLEETVETSRSSRAALRSLNELTLMLAGAQLGITMVTFALGAITKPWVHYALMPLFEWARIPLVMADVIAFILSLFIVTFLHLVIGEMAPKSWAIAHPETALRTIAIPARGFINLFRPLLQWINKMANDLVRKVGETPVDRAAAGGYDTDTLHALIEHSRETGALDQQSAAQISGIIKLDKITVGQTLTASPFTHSASATVAEVQAAAQRSGSLRVLIDAPSHLFPHVIHVRDTLGASPDEKASKWSRPILTVAETDTLHQALEYMREHNEQISAVLSADGKTVLGVITWDHILKYLWPASV”, the protein production result is recorded as “failed”.
Under “MAGVCGSKLMMARLVGMPDLFSDSGWGSGELPRALRPGLVHLPRWMGLDQQFAVVQQCREIARSVAGTPLAMHRQQWASGTMSAYLMSLGLHWEYRTYQYVSQWGGVAVPPIPVEFSALAHEVLRAAAGVDDSLAAWVDSYRIDAALVNYYPPGAGMGMHQDAFEDSRAPVVSLSIGDSAVFRAGNGVNRQRPWQDVVLGSGDAVVFGGPSRDMFHSVVRLHAGTAPTRCGVSQGRINLTFRQVKL” stands “failed”; under “MNNPSETSKPSMESGDGNTGTQTNGLDFQKQPVPVGGAISTAQAQAFLGHLHQVQLAGTSLQAAAQSLNVQSKSNEESGDSQQPSQPSQQPSVQAAIPQTQLMLAGGQITGLTLTPAQQQLLLQQAQAQAQLLAAAVQQHSASQQHSAAGATISASAATPMTQIPLSQPIQIAQDLQQLQQLQQQNLNLQQFVLVHPTTNLQPAQFIISQTPQGQQGLLQAQNLLTQLPQQSQANLLQSQPSITLTSQPATPTRTIAATPIQTLPQSQSTPKRIDTPSLEEPSDLEELEQFAKTFKQRRIKLGFTQGDVGLAMGKLYGNDFSQTTISRFEALNLSFKNMCKLKPLLEKWLNDAENLSSDSSLSSPSALNSPGIEGLSRRRKKRTSIETNIRVALEKSFLENQKPTSEEITMIADQLNMEKEVIRVWFCNRRQKEKRINPPSSGGTSSSPIKAIFPSPTSLVATTPSLVTSSAATTLTVSPVLPLTSAAVTNLSVTGTSDTTSNNTATVISTAPPASSAVTSPSLSPSPSASASTSEASSASETSTTQTTSTPLSSPLGTSQVMVTASGLQTAAAAALQGAAQLPANASLAAMAAAAGLNPSLMAPSQFAAGGALLSLNPGTLSGALSPALMSNSTLATIQALASGGSLPITSLDATGNLVFANAGGAPNIVTAPLFLNPQNLSLLTSNPVSLVSAAAASAGNSAPVASLHATSTSAESIQNSLFTVASASGAASTTTTASKAQ”, “failed”; under “MKFDDSKPIYKQIVHYIHTEIVTGTYEAGDKLLSVRELATKLEVNPTTIQRAYAELEEAGIIFTVRGTGKYLTEDKRRIEQLENHIAKQLTENFISEMSKLGINKEKIIAWVKKVEEVEVNASGK”, “failed”.
Take “MAEVKTRDEHDEEPPRFDAQAATIAPETILLHPGPAAIVALGGGEALCNALGEPLRPLFSPEAADSLLPEIRSALETGVPQQKVVDVGRDGLPAQFDLIILPTAEPGRVVVIGRDVTLERTLRKALTDSRQRYKDFVDLSIDFTWETGPDGRFVFVSPDGALGYAARDLVGALPWTLMDITDAQSGATVFNSPVRVKDVDIWVRRRDGTLACLKTSSMPVFDASGEWSGGRGVCHDITEQHDRDKALARALNRQRVVANVERTFRDEIDPSNMLNVAAEALARSVGGDGCLIYRAALDDGPDRPFLPRGRFGEGGDEKVVLTLEALGEGAHAQTTPDGKWTVLVAASRYRRQINGAVVLWRRIERGAWSEDDHLLIVDVANQIGSANEQIGQHDRIISMSRTDGLTGLLNRRAFFDDMDRRLKGPPGLVERRAGEEAARRSERPARSALLYIDLDNFKWVNDAHGHLRGDEALMTVRKILTDHTRATDIVARLGGDEFAIWLEGADAEAASAKAAEILAEDALLRPFDGSPDRPLSLSIGLAIHDPASGEGVEDLTARADMAMYAAKHGGKGRFSLSLPPPHTPT”: the protein production result is recorded as “failed”.
Turning to “MIPYAFIILLVVFFSVFDFSNLNVFKKKILLFFLSFILILFVGTRFETGDDWGEYTKVFDKIPLVSDLWNDNGMFLLFRMEPGYILFNSVIKSFGGSINEVFLLSSIVVISLFFVFQKRYTLLPFLAVLLYMRYGYMQFNMMFVRQGIAISIFFYSLKYIEDKKIIKYLLINILSSLFHSSLLIVLPLYFVINRRYSNIFLCTVVFISVLLSFFDWMGAILSFFPPFIQSSLTSYTESDVWGGMTGKINIAVAEKFILLLMCLRLREKLEQKNISFNLVFNLFVLSIICYYAFFQTYVFQQRTVLIFQLSTIFIISQLFLFFSVKNRMMVLFILNLMVIYFFFRYINIGKDVYLPYRSWLI”, the protein production result is listed as “failed”.
“MTPFTVDILIPIWNRPVETRNCLVTLMETTPSARLILIDNGSDRETERLLEEFSEILGERALFLKTSANQGFVRAVNRSLAQVEAPYAVVMQNTTLVTRGWLEPMVELADSRPDAGIIVPRLELEDGQGRRPKAAPPAGPVTEVSHGSFAASMVRRELVERQGGFDEELDGGPWCLRDYSRRAFRNGFLTLALDGAVVTYAEEVPLGSVARREETVRRSAETCRARWGREDAFCIYFPKDAEPEAVHGKLDVILRGARMGQCFTLILHPGLHKSLMETGHAPLHSNIALAPLPRFFATGEIRKIIGKLASVRGDTVTVAGVDGLSIPGVEGARSFSWLADEIRRRHESLYRPESPLEHHHHHH”: the protein production entry is “not failed”.
Next, “MVCDKCEKKLSKVIVPDKWKDGARNVTEGGGRKINENKLLSKKNRWSPYSTCTTKCMICKQQVHQDGKYCHTCAYSKGVCAMCGKQVLDTKMYKQSNV”: “failed”; “VATPRGRLRVASPVLFSQLAMGRIGAGFYAAYPEVIIEVTAEDRLVDLVEEQFDVAIRINPDPDSRLVGRCFARDRLVVVAAPELPRPMPGAIRQTPAIVTSSFQPTHWKLDNGHLVLKPIPKLWFSS”: “failed”; “MEAKKSNKIREIVKLQQLLKKWRKQAIASKAANNNNEDNNSSGGGSKSIKFLKRTLSFTDVTAVPKGYLAVSVGLEKKRYTIPTEYLSHQAFYVLLREAEEEFGFQQAGVLRIPCEVSVFESILKIMEEKNEGYLVTPITAKQECKFNAAADDKTSYQHPSDCPKTPSHQPHNSPMCR”: “not failed”.
